Test results as given in patent US20230159612A1 (MEDIGENE IMMUNOTHERAPIES, published 2023).

B1: MAGE-A4 TCR-5 (fully human TCR) (TCR)
TCR alpha: AQKITQTQPGMFVQEKEAVTLDCTYDTSDPSYGLFWYKQPSSGEMIFLIYQGSYDQQNATEGRYSLNFQKARKSANLVISASQLGDSAMYFCAMSGGYTGGFKTIFGAGTRLFVKANIQNPDPAVYQLRDSKSSDKSVCLFTDFDSQTNVSQSKDSDVYITDKTVLDMRSMDFKSNSAVAWSNKSDFACANAFNNSIIPEDTFFPSPESSCDVKLVEKSFETDTNLNFQNLSVIGFRILLLKVAGFNLLMTLRLWSS
TCR beta: DSGVTQTPKHLITATGQRVTLRCSPRSGDLSVYWYQQSLDQGLQFLIQYYNGEERAKGNILERFSAQQFPDLHSELNLSSLELGDSALYFCASSGGDGDEQFFGPGTRLTVLEDLKNVFPPEVAVFEPSEAEISHTQKATLVCLATGFYPDHVELSWWVNGKEVHSGVSTDPQPLKEQPALNDSRYCLSSRLRVSATFWQNPRNHFRCQVQFYGLSENDEWTQDRAKPVTQIVSAEAWGRADCGFTSESYQQGVLSATILYEILLGKATLYAVLVSALVLMAMVKRKDSRG
notes: no leader limits stated
B2: MAGE-A4 TCR-6 (fully human TCR) (TCR)
TCR alpha: GENVEQHPSTLSVQEGDSAVIKCTYSDSASNYFPWYKQELGKRPQLIIDIRSNVGEKKDQRIAVTLNKTAKHFSLHITETQPEDSAVYFCAASRGTGFQKLVFGTGTRLLVSPNIQNPDPAVYQLRDSKSSDKSVCLFTDFDSQTNVSQSKDSDVYITDKTVLDMRSMDFKSNSAVAWSNKSDFACANAFNNSIIPEDTFFPSPESSCDVKLVEKSFETDTNLNFQNLSVIGFRILLLKVAGFNLLMTLRLWSS
TCR beta: DTAVSQTPKYLVTQMGNDKSIKCEQNLGHDTMYWYKQDSKKFLKIMFSYNNKELIINETVPNRFSPKSPDKAHLNLHINSLELGDSAVYFCASSQFWDGAGDEQYFGPGTRLTVTEDLNKVFPPEVAVFEPSEAEISHTQKATLVCLATGFFPDHVELSWWVNGKEVHSGVSTDPQPLKEQPALNDSRYCLSSRLRVSATFWQNPRNHFRCQVQFYGLSENDEWTQDRAKPVTQIVSAEAWGRADCGFTSVSYQQGVLSATILYEILLGKATLYAVLVSALVLMAMVKRKD
notes: no leader limits stated
B3: MAGE-A4 TCR-4 (fully human TCR) (TCR)
TCR alpha: AQKITQTQPGMFVQEKEAVTLDCTYDTSDQSYGLFWYKQPSSGEMIFLIYQGSYDEQNATEGRYSLNFQKARKSANLVISASQLGDSAMYFCAMSGDSAGNMLTFGGGTRLMVKPHIQNPDPAVYQLRDSKSSDKSVCLFTDFDSQTNVSQSKDSDVYITDKTVLDMRSMDFKSNSAVAWSNKSDFACANAFNNSIIPEDTFFPSPESSCDVKLVEKSFETDTNLNFQNLSVIGFRILLLKVAGFNLLMTLRLWSS
TCR beta: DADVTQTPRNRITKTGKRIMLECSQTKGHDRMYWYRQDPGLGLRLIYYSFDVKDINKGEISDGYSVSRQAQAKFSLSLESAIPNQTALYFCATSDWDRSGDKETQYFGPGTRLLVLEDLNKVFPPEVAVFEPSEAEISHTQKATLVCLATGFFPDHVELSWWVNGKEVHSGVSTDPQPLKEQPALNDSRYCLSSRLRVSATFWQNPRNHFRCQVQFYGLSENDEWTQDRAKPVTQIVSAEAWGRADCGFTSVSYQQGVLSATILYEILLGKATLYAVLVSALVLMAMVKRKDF
notes: no leader limits stated
B4: TCR-2 containing murinized Cα and Cβ regions (TCR)
TCR alpha: AQKITQTQPGMFVQEKEAVTLDCTYDTSDPSYGLFWYKQPSSGEMIFLIYQGSYDQQNATEGRYSLNFQKARKSANLVISASQLGDSAMYFCAMSGGYTGGFKTIFGAGTRLFVKANIQNPEPAVYQLKDPRSQDSTLCLFTDFDSQINVPKTMESGTFITDKTVLDMKAMDSKSNGAIAWSNQTSFTCQDIFKETNATYPSSDVPCDATLTEKSFETDMNLNFQNLSVMGLRILLLKVAGFNLLMTLRLWSS
TCR beta: DSGVTQTPKHLITATGQRVTLRCSPRSGDLSVYWYQQSLDQGLQFLIQYYNGEERAKGNILERFSAQQFPDLHSELNLSSLELGDSALYFCASSGGDGDEQFFGPGTRLTVLEDLRNVTPPKVTLFEPSKAEIANKQKATLVCLARGFFPDHVELSWWVNGKEVHSGVSTDPQAYKESNYSYCLSSRLRVSATFWHNPRNHFRCQVQFHGLSEEDKWPEGSPKPVTQNISAEAWGRADCGITSASYHQGVLSATILYEILLGKATLYAVLVSGLVLMAMVKKKNS
notes: Expressed on the surface of retrovirally transduced human CD8+ T cells; Human variable regions with murine constant regions; also called MAGE-A4-TCR
B5: TCR-1 containing murinized Cα and Cβ regions (TCR)
TCR alpha: AQKITQTQPGMFVQEKEAVTLDCTYDTSDQSYGLFWYKQPSSGEMIFLIYQGSYDEQNATEGRYSLNFQKARKSANLVISASQLGDSAMYFCAMSGDSAGNMLTFGGGTRLMVKPHIQNPEPAVYQLKDPRSQDSTLCLFTDFDSQINVPKTMESGTFITDKTVLDMKAMDSKSNGAIAWSNQTSFTCQDIFKETNATYPSSDVPCDATLTEKSFETDMNLNFQNLSVMGLRILLLKVAGFNLLMTLRLWSS
TCR beta: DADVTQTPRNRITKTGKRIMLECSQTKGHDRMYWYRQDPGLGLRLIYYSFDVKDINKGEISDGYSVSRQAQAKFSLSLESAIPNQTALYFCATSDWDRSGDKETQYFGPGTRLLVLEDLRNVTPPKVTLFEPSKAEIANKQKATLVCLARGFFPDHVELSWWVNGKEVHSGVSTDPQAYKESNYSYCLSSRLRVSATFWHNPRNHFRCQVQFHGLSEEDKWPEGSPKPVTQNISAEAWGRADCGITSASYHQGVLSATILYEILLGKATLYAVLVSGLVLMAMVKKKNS
notes: as for B4
B6: TCR-3 containing murinized Cα and Cβ regions (TCR)
TCR alpha: GENVEQHPSTLSVQEGDSAVIKCTYSDSASNYFPWYKQELGKRPQLIIDIRSNVGEKKDQRIAVTLNKTAKHFSLHITETQPEDSAVYFCAASRGTGFQKLVFGTGTRLLVSPNIQNPEPAVYQLKDPRSQDSTLCLFTDFDSQINVPKTMESGTFITDKTVLDMKAMDSKSNGAIAWSNQTSFTCQDIFKETNATYPSSDVPCDATLTEKSFETDMNLNFQNLSVMGLRILLLKVAGFNLLMTLRLWSS
TCR beta: DTAVSQTPKYLVTQMGNDKSIKCEQNLGHDTMYWYKQDSKKFLKIMFSYNNKELIINETVPNRFSPKSPDKAHLNLHINSLELGDSAVYFCASSQFWDGAGDEQYFGPGTRLTVTEDLRNVTPPKVTLFEPSKAEIANKQKATLVCLARGFFPDHVELSWWVNGKEVHSGVSTDPQAYKESNYSYCLSSRLRVSATFWHNPRNHFRCQVQFHGLSEEDKWPEGSPKPVTQNISAEAWGRADCGITSASYHQGVLSATILYEILLGKATLYAVLVSGLVLMAMVKKKNS
notes: as for B4

These binders were tested against T1, MAGE-A4GVY-MHC-multimer (MAGE-A4 230-239, …; immuneAware) (human) (assay: flow cytometry, multimer staining of TCR-transduced CD3+ T cells, gated on live CD3+ cells).
T1 construct: Bought reagent (immuneAware); also called GVY-specific tetramer
From the text: After expansion of these cells, they were stained with a MAGE-A4GVY-MHC-multimer and antibody against CD3 and analyzed by flow cytometry. Populations were gated on live CD3+ cells and multimer staining.
After expansion, the transduced T cells were stained with a MAGE-A4GVY-MHC-multimer (MAGE-A4²³⁰⁻²³⁹, […]; immuneAware) and antibodies against CD3. Populations were gated on live CD3⁺ cells and multimer staining. All MAGE-A4-TCR-transgenic T cell populations bound the MAGE-A4GVY-MHC-multimer very efficiently (>70%).

Row | Binder | percent of cells stained by the multimer [%]
1 | B1 | > 70
2 | B2 | > 70
3 | B3 | > 70

Each binder was assayed against T1, MAGE-A4GVY-MHC-multimer (MAGE-A4 …) (assay: flow cytometry, multimer staining of TCR-transduced CD8+ T cells, gated on live CD8+/mCb+ cells).
From the text: Transduced CD8+ T cells were enriched by FACS using the murine constant beta region as a marker for transduction. After expansion of these cells, they were stained with an MAGE-A4GVY-MHC-multimer and antibodies against CD8 and the murine constant beta region (mmCb) and analyzed by flow cytometry. Populations were gated on live CD8+/mCb+ cells and staining of multimer/CD8 is shown.
They were stained with a MAGE-A4GVY-MHC-multimer (MAGE-A4²³⁰⁻²³⁹, […]; immuneAware) and antibodies against CD8 and the murine constant beta region. All MAGE-A4-TCR-transgenic T cell populations bound the MAGE-A4GVY-MHC-multimer very efficiently (>70%).

Row | Binder | percent of cells stained by the multimer [%]
4 | B4 | > 70
5 | B5 | > 70
6 | B6 | > 70
